Consider 6 sequences from patent publication US20030114404.

For series [1], the system named is T1, VEGF165 (Homo sapiens), P15692-4.
T1 sequence: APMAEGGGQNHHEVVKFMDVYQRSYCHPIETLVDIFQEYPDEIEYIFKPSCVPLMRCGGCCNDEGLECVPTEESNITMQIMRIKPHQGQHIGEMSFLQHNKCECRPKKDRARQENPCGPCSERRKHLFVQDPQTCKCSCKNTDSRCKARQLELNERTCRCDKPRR
Nature of the series: filter. Particulars: 2'-F pyrimidines; 37 C.

Another series deals with T2, VEGF, P15692-4.
T2 sequence: T1 sequence
Nature of the series: cell_activity. The note with it: NX278 (dialkylglycerol, 2'-NH2, 2'-OMe, PS) embedded in DSPC:cholesterol liposome; KSY-1 Kaposi's sarcoma cell proliferation; HUVEC IC50 about 300 nM (p159).

pIC50, pKd: −log10 of the molar value.

A word on the pKd: it is the negative decadic logarithm of the Kd, by convention in mol/L. Lower therefore signals a high Kd. “GGGAGGACGAUGCGGAGAAUCAGUGAAUGCUUAUAAAUCUCGYGUCAGACGACUCGCCCGA [VT30.3]”: the pKd in series [1] is 11.30. Same read-out and setting: to “GGGAGGACGAUGCGGUAGGAAGAAUUGGAAGCGCAUUUUCCUCGYCAGACGACUCGCCCGA [VP30.22]” belongs 10.70; to “GGGAGGACGAUGCGGYGAACCGAUGGAAUUUUUGGACGCUCGCCUCAGACGACUCGCCCGA [VP30.2]”, 11.00; to “GGGAGGACGAUGCGGCGGYACUUUGGAAGAAUUGAAUUUCCCGCUCAGACGACUCGCCCGA [VP30.26]”, 11.00. A word on the pIC50: it is the IC50 on a negative log10 scale, so that one unit is a factor of ten. High values mean a low IC50, low ones a high IC50. Regarding “TTTTACCCUGAUGGUAGACGCCGGGGUGTTTTT [NX278-Liposome]”, the pIC50 with VEGF, P15692-4 is 7.00. Consider “GGGAGGACGAUGCGGAYCAACCGAUUGACGUUAUGGGACGCUGGUCAGACGACUCGCCCGA [VP30.5]”, for which the pKd in series [1] is 11.10.
